B1: Caspase-2 (Homo sapiens), P42575 (parent)
chain: MAAPSAGSWSTFQHKELMAADRGRRILGVCGMHPHHQETLKKNRVVLAKQLLLSELLEHLLEKDIITLEMRELIQAKVGSFSQNVELLNLLPKRGPQAFDAFCEALRETKQGHLEDMLLTTLSGLQHVLPPLSCDYDLSLPFPVCESCPLYKKLRLSTDTVEHSLDNKDGPVCLQVKPCTPEFYQTHFQLAYRLQSRPRGLALVLSNVHFTGEKELEFRSGGDVDHSTLVTLFKLLGYDVHVLCDQTAQEMQEKLQNFAQLPAHRVTDSCIVALLSHGVEGAIYGVDGKLLQLQEVFQLFDNANCPSLQNKPKMFFIQACRGDETDRGVDQQDGKNHAGSPGCEESDAGKEKLPKMRLPTRSDMICGYACLKGTAAMRNTKRGSWYIEALAQVFSERACDMHVADMLVKVNALIKDREGYAPGTEFHRCKEMSEYCSTLCRHLYLFPGHPPT
B2: Isoform 1 of Mothers against decapentaplegic homolog 3 (Homo sapiens), P84022-1 (parent)
chain: MSSILPFTPPIVKRLLGWKKGEQNGQEEKWCEKAVKSLVKKLKKTGQLDELEKAITTQNVNTKCITIPRSLDGRLQVSHRKGLPHVIYCRLWRWPDLHSHHELRAMELCEFAFNMKKDEVCVNPYHYQRVETPVLPPVLVPRHTEIPAEFPPLDDYSHSIPENTNFPAGIEPQSNIPETPPPGYLSEDGETSDHQMNHSMDAGSPNLSPNPMSPAHNNLDLQPVTYCEPAFWCSISYYELNQRVGETFHASQPSMTVDGFTDPSNSERFCLGLLSNVNRNAAVELTRRHIGRGVRLYYIGGEVFAECLSDSAIFVQSPNCNQRYGWHPATVCKIPPGCNLKIFNNQEFAALLAQSVNQGFEAVYQLTRMCTIRMSFVKGWGAEYRRQTVTSTPCWIELHLNGPLQWLDKVLTQMGSPSIRCSSVS
partner: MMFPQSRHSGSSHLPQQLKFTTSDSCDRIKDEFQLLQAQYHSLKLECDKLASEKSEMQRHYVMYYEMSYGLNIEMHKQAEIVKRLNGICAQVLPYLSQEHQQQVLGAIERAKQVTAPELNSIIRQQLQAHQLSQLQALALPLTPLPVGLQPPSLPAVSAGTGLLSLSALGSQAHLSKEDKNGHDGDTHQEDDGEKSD

Variants of: B1
Settings: with cradd_human CRADD

Row | effect of a mutation on the interaction | Variant
1 | with no effect | E388K
2 | with no effect | G349S

The remaining lines, values behind:

Row | Variant | effect of a mutation on the interaction
3 | V29E | with no effect
4 | R265G | with no effect

Variants of: B2
Settings: with tle5_human TLE5, Q08117

Row | Variant | effect of a mutation on the interaction
5 | P393L | disrupting interaction strength

Variants of: B2
Settings: with tle5_human TLE5, Q08117
Remark: another data set of the same source

Row | Variant | effect of a mutation on the interaction
6 | I170V | with no effect
